Broadly, the Kd is a measure of binding affinity in units of concentration.

Among the targets are Hsp53 (Homo sapiens, UniProt P04637 1-393); Xlp53 (Xenopus laevis, UniProt Q7T1D0 1-362); Mmp53 (Mus musculus, UniProt P02340 1-390).
Common to all, as to assay: fluorescence anisotropy competition titration; 25 mM sodium phosphate (purification buffer pH 7.2), 225 mM NaCl, 10% v/v glycerol, 5 mM DTT, 0.2 mg/mL BSA, 22 C
Common to all, as to conditions: protein: recombinant; tags: N-terminal 6xHis-lipoyl-TEV tag, cleaved; chain copies: 4

The target in a further series is T1, ΔNp63α (Homo sapiens, UniProt Q9H3D4-2 1-586).
T1 sequence: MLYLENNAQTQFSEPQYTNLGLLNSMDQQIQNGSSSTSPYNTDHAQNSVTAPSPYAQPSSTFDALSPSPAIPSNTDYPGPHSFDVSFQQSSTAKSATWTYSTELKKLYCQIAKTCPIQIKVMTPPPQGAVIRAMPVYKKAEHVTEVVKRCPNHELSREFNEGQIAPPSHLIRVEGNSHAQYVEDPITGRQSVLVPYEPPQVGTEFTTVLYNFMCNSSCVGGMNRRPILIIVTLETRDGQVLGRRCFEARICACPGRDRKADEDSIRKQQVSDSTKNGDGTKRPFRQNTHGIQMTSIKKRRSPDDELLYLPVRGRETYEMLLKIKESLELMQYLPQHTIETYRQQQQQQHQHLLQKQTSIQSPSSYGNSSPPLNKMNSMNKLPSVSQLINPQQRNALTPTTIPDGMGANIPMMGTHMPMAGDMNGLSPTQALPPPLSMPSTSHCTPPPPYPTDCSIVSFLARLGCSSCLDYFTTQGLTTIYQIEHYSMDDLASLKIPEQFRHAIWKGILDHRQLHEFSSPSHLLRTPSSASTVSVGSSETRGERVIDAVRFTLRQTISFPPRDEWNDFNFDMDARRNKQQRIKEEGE

Another series deals with T2, ΔNp63γ (Homo sapiens, UniProt Q9H3D4-6 1-393).
T2 sequence: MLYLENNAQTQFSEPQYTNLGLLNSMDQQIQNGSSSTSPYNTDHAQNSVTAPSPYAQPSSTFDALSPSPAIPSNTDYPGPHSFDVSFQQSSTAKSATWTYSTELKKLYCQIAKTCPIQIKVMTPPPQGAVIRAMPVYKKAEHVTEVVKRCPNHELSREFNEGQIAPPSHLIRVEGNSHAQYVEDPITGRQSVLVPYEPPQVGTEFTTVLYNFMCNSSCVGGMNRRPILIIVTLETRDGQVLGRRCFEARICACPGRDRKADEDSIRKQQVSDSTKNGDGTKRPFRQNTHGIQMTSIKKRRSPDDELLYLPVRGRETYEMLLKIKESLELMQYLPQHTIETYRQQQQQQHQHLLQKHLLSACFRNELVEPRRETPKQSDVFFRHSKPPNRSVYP

The target of another series is T3, ΔNp63β (Homo sapiens, UniProt Q9H3D4-4 1-461).
T3 sequence: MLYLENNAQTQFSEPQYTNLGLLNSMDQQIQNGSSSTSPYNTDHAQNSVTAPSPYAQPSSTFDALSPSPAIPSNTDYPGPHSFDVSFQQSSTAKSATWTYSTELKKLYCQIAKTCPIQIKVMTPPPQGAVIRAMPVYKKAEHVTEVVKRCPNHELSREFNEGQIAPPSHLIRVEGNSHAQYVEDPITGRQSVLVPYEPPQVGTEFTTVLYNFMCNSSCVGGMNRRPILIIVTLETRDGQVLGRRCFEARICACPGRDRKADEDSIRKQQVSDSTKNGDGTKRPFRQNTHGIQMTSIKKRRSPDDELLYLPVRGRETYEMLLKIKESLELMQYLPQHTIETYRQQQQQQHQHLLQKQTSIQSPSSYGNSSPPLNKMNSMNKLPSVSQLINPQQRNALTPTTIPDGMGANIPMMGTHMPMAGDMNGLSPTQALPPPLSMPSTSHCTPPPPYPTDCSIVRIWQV

Another series deals with T4, p73CT (Homo sapiens, UniProt O15350 104-383).
T4 sequence: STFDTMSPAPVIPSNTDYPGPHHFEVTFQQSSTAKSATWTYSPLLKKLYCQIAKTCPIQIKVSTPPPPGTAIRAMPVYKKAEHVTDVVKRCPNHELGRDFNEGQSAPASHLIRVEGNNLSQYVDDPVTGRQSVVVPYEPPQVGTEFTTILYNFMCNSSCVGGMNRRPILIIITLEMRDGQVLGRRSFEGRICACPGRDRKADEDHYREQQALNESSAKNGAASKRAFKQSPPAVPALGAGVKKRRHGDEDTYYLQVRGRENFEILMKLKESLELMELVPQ

The target in a further series is T5, Drp53 (Danio rerio, UniProt P79734 1-373).
T5 sequence: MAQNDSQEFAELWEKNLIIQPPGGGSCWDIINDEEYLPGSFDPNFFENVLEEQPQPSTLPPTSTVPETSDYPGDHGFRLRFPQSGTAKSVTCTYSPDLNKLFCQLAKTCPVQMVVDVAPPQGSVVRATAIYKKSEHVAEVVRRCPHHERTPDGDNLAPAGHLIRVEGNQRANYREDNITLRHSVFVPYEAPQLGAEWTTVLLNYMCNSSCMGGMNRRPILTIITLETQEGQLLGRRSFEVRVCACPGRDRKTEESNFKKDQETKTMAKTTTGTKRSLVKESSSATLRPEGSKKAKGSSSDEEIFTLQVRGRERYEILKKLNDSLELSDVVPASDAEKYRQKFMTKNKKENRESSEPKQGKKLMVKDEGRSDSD

Hsp53, sequence (P04637 whole entry): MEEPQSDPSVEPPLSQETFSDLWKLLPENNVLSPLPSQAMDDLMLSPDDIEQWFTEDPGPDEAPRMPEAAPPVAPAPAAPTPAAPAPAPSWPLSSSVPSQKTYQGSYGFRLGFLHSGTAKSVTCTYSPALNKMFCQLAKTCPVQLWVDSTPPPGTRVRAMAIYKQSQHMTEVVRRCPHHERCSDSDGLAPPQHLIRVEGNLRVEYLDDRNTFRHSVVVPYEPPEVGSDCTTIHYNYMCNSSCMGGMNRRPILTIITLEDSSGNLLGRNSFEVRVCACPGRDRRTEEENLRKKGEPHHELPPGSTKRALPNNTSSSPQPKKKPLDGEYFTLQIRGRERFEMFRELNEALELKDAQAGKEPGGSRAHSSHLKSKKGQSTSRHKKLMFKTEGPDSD
Mmp53, sequence (P02340 whole entry): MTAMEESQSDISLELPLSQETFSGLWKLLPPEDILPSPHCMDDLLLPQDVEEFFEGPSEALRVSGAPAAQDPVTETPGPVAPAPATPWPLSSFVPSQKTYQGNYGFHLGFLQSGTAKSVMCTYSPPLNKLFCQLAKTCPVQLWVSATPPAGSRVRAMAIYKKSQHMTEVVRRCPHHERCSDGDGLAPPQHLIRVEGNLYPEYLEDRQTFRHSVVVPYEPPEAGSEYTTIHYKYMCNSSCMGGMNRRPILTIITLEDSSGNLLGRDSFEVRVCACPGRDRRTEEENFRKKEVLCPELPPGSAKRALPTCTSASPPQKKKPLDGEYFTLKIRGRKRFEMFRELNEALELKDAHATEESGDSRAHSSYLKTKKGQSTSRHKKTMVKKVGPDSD
Xlp53, sequence (Q7T1D0 entry or part of it): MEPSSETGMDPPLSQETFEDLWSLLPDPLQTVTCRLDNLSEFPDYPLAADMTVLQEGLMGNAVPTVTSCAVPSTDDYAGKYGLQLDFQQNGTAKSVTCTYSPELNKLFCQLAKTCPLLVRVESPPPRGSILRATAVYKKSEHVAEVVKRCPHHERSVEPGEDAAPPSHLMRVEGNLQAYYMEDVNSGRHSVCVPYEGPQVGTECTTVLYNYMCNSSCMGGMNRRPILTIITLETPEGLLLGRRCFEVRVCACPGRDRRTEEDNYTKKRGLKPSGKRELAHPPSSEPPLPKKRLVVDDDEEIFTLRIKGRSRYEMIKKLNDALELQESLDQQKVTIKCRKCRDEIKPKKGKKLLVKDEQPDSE

B1: Ref competitor (dsDNA)
DNA 1: CGCGGACATGTCCGGACATGTCCCGC
DNA 2: GCGGGACATGTCCGGACATGTCCGCG
Take B1: the Kd in the series with ΔNp63α was 61.7 nM; with Hsp53, 75.9 nM; in the series with Xlp53 it was 83.2 nM; with ΔNp63γ, 33.1 nM; in the series with ΔNp63β, 35.5 nM; with Mmp53, 132 nM. For the same molecule, the Kd with p73CT worked out at 148 nM; in the series with Drp53, 38 nM.

(Values after article PMC2807882, “Conservation of DNA-binding specificity and oligomerisation properties within the p53 family”.)
